± gives the uncertainty stated by the source.
Experiment: amyloid nucleation score (Sup35N fusion, yeast selection) (log enrichment); library NNK2; higher = more nucleation; inactive = no reads after selection
How it was run: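 The nucleation score equals the log enrichment of output over input reads from DiMSum, centred on the mode score of non-aggregating sequences. It was computed only for sequences with 100 or more input reads. The reads came from Illumina sequencing of plasmid inserts from psi-negative yeast expressing Sup35N fused to peptides of 20 random codons, induced with 100 μM copper sulfate for 24 hours and grown 7 days at 30°C without adenine and uracil.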

Substance | amyloid nucleation score
SLGIQRARNAMSNTPFALGS | 0.596 ± 0.36
CMQLSYSYSLTFEGQCHLVG | 4.27 ± 0.088
ILWWNKAMGCFNELVLGRRV | -0.016 ± 0.79
TDNNNVYYVYSLQVIPTVSD | -0.496 ± 0.32
NRLPFKYLSIDIYPCLASLA | -0.3 ± 0.26
YHCCFRSKAGFQESQDITIR | -0.18 ± 0.24
SPHASMTIVIF | 1.04 ± 0.22
ADHELVVITDVGFRLGSTGD | -0.226 ± 0.37
GCSAQACYK | 1.03 ± 0.23
CKPRNLLLLSPKPIVLCKDF | -1.21 ± 0.79
DRSRLGVGGVDVLWFLHSSK | 5.328 ± 0.046
IKGTQSVRDTVSLVVIKDVW | 0.627 ± 0.4
NARGHVNV | 0.786 ± 0.44
WLYYDGSFW | -0.429 ± 0.76
WMYTSRPNSSQTIRGWRATY | -0.046 ± 0.39
AGFYHPSNFGCLGSGLLRTM | inactive
VMTARHVLWSNLRVRPRGHD | 0.867 ± 0.67
SAMQFRSFF | 0.94 ± 0.34
QGTRAYQSKALTVSIMLMLV | 3.45 ± 0.096
RNGLRTLEQRRSKSVWEMSW | 0.969 ± 0.16
FHPVWSLRKLFDCPDWTLAR | 1.23 ± 0.12
DCSSVISKSSLIAVLCFHTN | 5.14 ± 0.058
TLEKSFPLEFVV | 0.204 ± 0.65
SMRCLIMCATDCRNDMGRLW | 5.362 ± 0.039
IWTSRQTTIEAITRAHNPST | 3.83 ± 0.084

Substance | amyloid nucleation score
CMLDA | -0.555 ± 0.76
NAHKTNLVQTLVNRLIELMD | 0.223 ± 0.29
KIDSICRYRGPINQLNINPF | 0.417 ± 0.4
LFIYYWYLLFYGSPYIWLPV | -0.363 ± 1.1
PDDCGWVLMFENQFAAAGTP | 0.122 ± 0.28
HVVTCMRILFPSDKGSCFVK | -0.142 ± 0.37
YLGGMGSICDVNPCLYNRFL | 0.655 ± 0.16
FKVLVSLALSRECS | -0.75 ± 0.48
NRSIVYGYFQLYENFNWPFS | 0.913 ± 0.19
IIHDEVSLPWI | inactive
FFVKNASSSFFLLKRLSWT | -0.59 ± 1.1
LFTVWVASVVWSCADVA | -1.34 ± 0.78
LCWSYCRVKCGHMFVGVRGS | 0.58 ± 0.56
TGLTLVV | -0.094 ± 1
NAPLCFKHKSRL | -0.995 ± 0.44
NARLRYGSL | -0.101 ± 0.37
RNRAENV | -0.36 ± 0.76
SSVRR | 0.723 ± 0.22
SQPHYGRASACRSSSSR | 0.831 ± 0.51
LQANWNDGPVGSSICAACSL | -0.746 ± 0.76
VEYINWRFIRNTYSVE | 2.14 ± 0.12
HCVLYCNMALFLQRSHRASC | 8.484 ± 0.039
CVLTRVFETTSCVSIHLF | -1.64 ± 0.79
WHSDSQTRRSSLSLLVCQID | 0.935 ± 0.66
WVGAVKFFRSVKRQMSIYLE | inactive

Substance | amyloid nucleation score
HRWVVWEYTGLAFYLAALEY | -0.469 ± 0.36
VTGTT | -0.01 ± 1
IIALKMVVLIKCIKVY | inactive
LMSYVSSRNVSLQFIFVLPL | 5.55 ± 0.069
RRRCYHTVSKFRWNIQSAVT | -0.337 ± 1
FLMYFVNR | 2.83 ± 0.055
GNMVFAPCDL | 1.07 ± 0.2
FGRRYIMLRKYIDVIDLSIH | -0.843 ± 0.76
PFWVGNGKQGVFGKFDCYVI | -1.19 ± 0.34
GNRFNRRLWSQATILEF | -0.166 ± 0.76
IFKSHIPW | -1.22 ± 0.48
WCFCSLLCVSGCLRPDPELP | 1.28 ± 0.22
VNLWCRYDWGVPGDSWGRDG | 2.92 ± 0.078
TLLSNTSKLFLLHNYHQWVM | 0.062 ± 0.74
SGIGVNSGAGRNMDLCDLKR | inactive
KRNLVCAISFLDSRSCRRTA | 0.119 ± 0.24
TFAQYPSLGNSFSGWGYCVK | -2.02 ± 0.75
LSLVNGLRDVFTSGWALRCW | 4.89 ± 0.05
SNESNFIVICVCMDCIRGGG | inactive
KLPAVNLVVMREWKALRFGV | -0.48 ± 0.33
LNSPLIPVRLMGVVRFQLLD | -0.459 ± 0.39
TFCICPFNAEV | 7.35 ± 0.029
ILCLFTLSSSKCYGG | 5.689 ± 0.037
LLPCLPLPFMSPITARATHI | 3.24 ± 0.058
VMFEFNLAGSDSSDKAAMVT | 0.014 ± 0.49

Substance | amyloid nucleation score
GSSGLCIRSSLIYFVCQTVW | 6.903 ± 0.054
PSTIGRMVVLACWSDICRRG | 8.88 ± 0.059
EDKNLVWLLCQGEM | 4.43 ± 0.058
LSMELNGYYILVCDLDFVTE | 1.5 ± 0.16
VNRDRAQLWVACITCRCNFR | 8.986 ± 0.049
MKGACLRGYEVLSMGQSTSY | 0.404 ± 0.8
MYCYRNFLSDDINRGGALVM | -0.998 ± 0.74
ASGSKDACGCATSCV | 0.86 ± 0.13
IYIWCARHEILWYRNGWGRG | 0.2 ± 0.36
ECYDFYTWESYGLGCTSCEK | -0.01 ± 0.43
MSPYLWYGWLEAGLLGIRTL | 0.871 ± 0.34
NGRTRCNPFLFGFKGRPGEC | -1.34 ± 1.1
MLVPFRVESMSGTRTCKVTV | 4.96 ± 0.08
DYAFRVYSGIPLKLSNS | -0.373 ± 0.65
RLDYNSSCQIFLFAGFMYLF | 3.23 ± 0.067
CAMDCSSVQGGSTITKCHTM | 0.218 ± 1.1
FSMRCYRVVLKYVSTGW | 0.905 ± 0.35
SVVFDYCSGIVSRY | -0.483 ± 1.1
VNSMAMLCLRICIGTHQMCG | 5.03 ± 0.054
VYAYRTEFQRW | 0.886 ± 0.47
FCLLIGLLFTYWLSINFAIT | inactive
IVFFVSWLIKCKPWFLVVNM | inactive
VGVLSEDIYCSAQPYLGRSG | 0.331 ± 0.4
WLMTYFNISSGFKSVTWVES | 3.69 ± 0.11
MKFKPDLVLFRYVHVKVYLE | -1.01 ± 1.1

Substance | amyloid nucleation score
YAIICKPLDDPLRKGTRWRR | 0.477 ± 0.4
VPGRYFSQELVFTLFLGMAK | -1.43 ± 0.61
IAFYMLSWGMMLV | -0.074 ± 0.8
VVSTSYIGGKKRSFCVRCGG | -0.73 ± 0.49
LTVRELLFTSRRHRARRHSC | 1.81 ± 0.32
NATCA | -1.01 ± 0.45
SDRGLRACQCVCWDFDSISM | 6.212 ± 0.046
MMHEYAAGGLSSGLFWDMSG | -0.623 ± 0.63
MNHWGMLRLGSWYRITYA | -0.367 ± 0.38
DHLNGASRRMWLLTYFTVFE | inactive
VLSNLIFYLSPFCIMHLMR | 3.27 ± 0.13
SCNAGVGSIS | -0.011 ± 0.46
RGKYAITCVMLWK | 5.769 ± 0.054
SSCPYYHGYNVRVMSCSHVI | 0.091 ± 0.4
RRFVLARVPNNKCPQTIRLD | 0.733 ± 0.48
VLYSFSGVTPWHKYPCNCV | 0.256 ± 0.46
KSQLYNYAVSM | -1.59 ± 0.64
HMSGLNGLGCLGTCLWLCSS | inactive
GVLRQEFYKSANNSMKQWLF | inactive
FGFIYGTRVEGLSIVSRQSR | 2.36 ± 0.14
TSYRVRGVGSSELCGSLKLR | 0.627 ± 0.36
SVRNNLAVGDKLFNVTADCN | 0.168 ± 0.8
VYNWGGRLKP | 0.147 ± 0.49
YQIAWI | -0.719 ± 0.46
SARHSRDR | 2.31 ± 0.066

Substance | amyloid nucleation score
HKVQLVWPFVYLVEVQRRSG | 2.85 ± 0.089
DWKNYRMMHVEVWTACRILG | 0.734 ± 0.81
SKFVSKSEV | -0.983 ± 1.1
RVDVLIE | 9.82 ± 0.048
ACLITNRV | -0.288 ± 0.54
CRRHVMFYTCMLE | 4.27 ± 0.064
LRSEFRFIYLRLTWKVR | inactive
RSLVDLMRGFDIV | 5.62 ± 0.062
SYASWYCLYCKNSGQGFLFE | 7.948 ± 0.026
WHENMSGTPKLASTNNGSKR | 2.61 ± 0.18
YCGFQYLRWGVTVVNS | 0.386 ± 0.19
QLYRCPFCHGGALSYYIRKV | inactive
NILRATTFCVDHLYSSFFCT | 6.74 ± 0.068
EKFESERISFRAMGQGEVLR | 4.61 ± 0.079
RGINKTDIFVFELCVHDVCL | 2.58 ± 0.16
VRAQKRSWGQGSL | 1.23 ± 0.14
VLPTEYSGFFSTRQLPSLDS | 0.137 ± 0.79
AYRRYDWYFMLVRLLY | 0.795 ± 0.5
LCLRDFSFDGLVGSR | 0.119 ± 0.65
SYFDMWIGW | 1.2 ± 0.47
QYLSALSSAISGGDVYMMSK | 5.15 ± 0.065
ILCFGFITTNSIRLQSPMVV | 0.753 ± 0.51
CKEYMMIFMTIIKVYLNTYL | -0.698 ± 0.78
PCVPGDYTVAKVAFSTY | -0.011 ± 1.1
MAILYVVGWFVP | 0.148 ± 0.28

Substance | amyloid nucleation score
CAVEVM | -0.724 ± 0.64
EGTIWRVSW | 0.392 ± 0.56
PIFYSPLAFMLRMYHNG | -0.998 ± 0.38
TIQAYICPLVSKAYWWGVEY | 6.427 ± 0.032
DNDRHNAVALRSSVIVLLGK | inactive
LTRPCITV | 0.193 ± 0.55
ITFMVLM | 6.6 ± 0.074
ELYRCA | 0.744 ± 0.22
ILLYNCCCEGWACKSWLGSH | inactive
RVTSIVYLKLICFMGVSNLF | inactive
CNVTIIYVPYGEWTTFYLRL | 7.45 ± 0.082
FMARRNVAYILEYIIVYRF | -0.735 ± 0.64
DHHDTTHYYIWVDKYKYLV | -0.216 ± 0.64
EKHWSFFTGMSVSHRLFRQN | inactive
IGLANSSVCFSAFVTWYSLH | inactive
YVSWCCGRFISYPVC | 0.321 ± 0.19
SCNGCSSMRDIFIFHGLLHN | 7.165 ± 0.033
LPIRWVVVGEGSGVGRVWTW | 0.227 ± 0.3
TMFASHFCWYALYYVCILNF | 0.066 ± 1
